The values below come from paper PMC9250616 (2022).

By Kd is commonly meant the concentration at which binding is half-saturated.

For the assay, the target named is T1, Protective antigen (Bacillus anthracis, UniProt P13423).
T1 chain: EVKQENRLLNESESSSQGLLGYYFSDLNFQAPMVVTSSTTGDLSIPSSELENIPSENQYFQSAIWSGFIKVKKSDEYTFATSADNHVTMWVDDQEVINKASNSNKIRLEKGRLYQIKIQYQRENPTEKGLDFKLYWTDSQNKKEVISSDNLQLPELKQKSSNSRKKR

B1: CMG2 (protein)
chain: QEQPSCRRAFDLYFVLDKSGSVANNWIEIYNFVQQLAERFVSPEMRLSFIVFSSQATIILPLTGDRGKISKGLEDLKRVSPVGETYIHEGLKLANEQIQKAGGLKTSSIIIALTDGKLDGLVPSYAEKEAKISRSLGASVYCVGVLDFEQAQLERIADSKEQVFPVKGGFQALKGIINSILAQSCTEILELQPSSVCVGEEFQIVLSGRGFMLGSRNGSVLCTYTVNETYTTSVKPVSVQLNSMLCPAPILNKAGETLDVSVSFNGGKSVISGSLIVTATECSNG
B1 yielded a Kd of 0.46 nM.
